B1: recombinant NAP1L2 protein: human recombinant NAP1L2 protein (Abcam, Cat. #ab117213) (protein, UniProt Q9ULW6 1-460, looked up)
Nucleosome assembly protein …: MAESENRKELSESSQEEAGNQIMVEGLGEHLERGEDAAAGLGDDGKCGEEAAAGLGEEGENGEDTAAGSGEDGKKGGDTDEDSEADRPKGLIGYVLDTDFVESLPVKVKYRVLALKKLQTRAANLESKFLREFHDIERKFAEMYQPLLEKRRQIINAIYEPTEEECEYKSDSEDCDDEEMCHEEMYGNEEGMVHEYVDEDDGYEDYYYDYAVEEEEEEEEEDDIEATGEENKEEEDPKGIPDFWLTVLKNVDTLTPLIKKYDEPILKLLTDIKVKLSDPGEPLSFTLEFHFKPNEYFKNELLTKTYVLKSKLAYYDPHPYRGTAIEYSTGCEIDWNEGKNVTLKTIKKKQKHRIWGTIRTVTEDFPKDSFFNFFSPHGITSNGRDGNDDFLLGHNLRTYIIPRSVLFFSGDALESQQEGVVREVNDAIYDKIIYDNWMAAIEEVKACCKNLEALVEDIDR
B2: recombinant HBEGF protein: recombinant HBEGF protein used to induce keratinocyte differentiation (protein, UniProt Q99075 63-148, looked up)
Heparin-binding EGF-like …: DLQEADLDLLRVTLSSKPQALATPNKEEHGKRKKKGKGLGKKRDPCLRKYKDFCIHGECKYVKELRAPSCICHPGYHGERCHGLSL

How the values were obtained:
Assay type in all cases: cell-based, human
[1] = tested on: MMP2 and MMP9 in HaCat keratinocytes; assay: Expression of matrix metalloproteinases in HaCat keratinocytes, RT-PCR and Western blot (Example 17); conditions: 24 hours
Experimental: 1*10^8 HaCat cells were seeded in culture dishes, into which a human recombinant NAP1L2 protein (Abcam, Cat. #ab117213), sorafenib, capecitabine, docetaxel, and osimertinib were added, or NAP1L2 siRNA (sh-NAP1L2, GeneChem) was transfected, respectively. The cells were placed in an incubator containing 5% carbon dioxide for culture at 37° C. for 24 hours, washed with PBS, and then collected by high-speed centrifugation. An RLT lysis buffer was added to the above collected cells, the mixture was shaken at 4° C. for half an hour and centrifuged to collect the supernatant, and the expression of matrix metalloproteins was measured by Western blot.
Total RNA was extracted from the above collected cells using a Trizol reagent (Sigma Aldrich). 1 μg of RNA was reverse-transcribed into cDNA using a cDNA reverse transcription kit (Transgene Biotech, Cat. #AT311-03). 1.25 μL of a primer (SinoBiological, Cat. #HP100168&HP100367), 10 μL of an iTagUniversal SYBR Green supermix (Bio-Rad, Cat. #172-5125), and an appropriate amount of DEPC ultrapure water were added to formulate 20 μL of a reaction solution to perform an RT-PCR reaction. Upon completion of the reaction, the reaction solution was subjected to agarose gel electrophoresis to determine the mRNA expression amounts of the matrix metalloproteins.

[2] = tested on: KRT1, KRT10, Loricrin, and Involucrin in HaCat keratinocytes; assay: Expression of keratinocyte differentiation markers in HaCat cells, RT-PCR and Western blot (Example 18); conditions: HBEGF protein alone, 24 hours
Experimental: 1*10^8 HaCat cells were seeded in culture dishes, into which a recombinant HBEGF protein (Thermo Fisher Scientific, Cat. #100-47-1 mg) was added. The cells were placed in an incubator containing 5% carbon dioxide for culture at 37° C. for 24 hours, into which an HBEGF antibody (Invitrogen, Cat. #406316) was added, or METTL3 siRNA (sh-METTL3, GeneChem) and NAP1L2 siRNA (sh-NAP1L2, GeneChem) were transfected. The cells were placed in an incubator containing 5% carbon dioxide for culture at 37° C. for 24 hours, washed with PBS, and then collected by high-speed centrifugation. An RLT lysis buffer was added to the above collected cells, the mixture was shaken at 4° C. for half an hour and centrifuged to collect the supernatant, and the protein expression amounts of keratinocyte differentiation markers KRT1, KRT10, Loricrin, and Involucrin were measured by Western blot.
Total RNA was extracted using a Trizol reagent (Sigma Aldrich). 1 μg of RNA was reverse-transcribed into cDNA using a cDNA reverse transcription kit (Transgene Biotech, Cat. #AT311-03). 1.25 μL of a primer (with a primer sequence shown in Table 2), 10 μL of an iTag Universal SYBR Green supermix (Bio-Rad, Cat. #172-5125), and an appropriate amount of DEPC ultrapure water were added to formulate 20 μL of a reaction solution to perform an RT-PCR reaction. […]

HaCaT keratinocytes = assay: Inhibition of HBEGF-induced differentiation of HaCaT keratinocytes, marker mRNA by RT-PCR (Example 21); conditions: 2.5 ng/mL human recombinant HBEGF protein alone, 24 hours
Experimental: Human HaCaT keratinocytes were cultured in a DMEM culture medium containing 10% fetal bovine serum, 100 U/mL penicillin, and 100 µg/mL streptomycin. The cells were seeded into a 96-well plate at a density of […] and placed in an incubator containing 5% carbon dioxide for culture at 37° C. for 24 hours. An equal volume of DMSO was added into control well 1, a 2.5 ng/mL human recombinant HBEGF protein (Abcam, ab205523) was added into control well 2, and a 2.5 ng/mL human recombinant HBEGF protein and corresponding concentrations of test compounds were added into sample wells. The cells were continuously cultured for 24 hours, washed with PBS, and then collected by high-speed centrifugation. Total RNA was extracted using a Trizol reagent (Sigma Aldrich). 1 μg of RNA was reverse-transcribed into cDNA using a cDNA reverse transcription kit (Transgene Biotech, AT311-03). 1.25 μL of a primer (with a primer sequence shown in Table 2), 10 μL of an iTag Universal SYBR Green supermix (Bio-Rad, 172-S125), and an appropriate amount of DEPC ultrapure water were added to formulate 20 μL of a reaction solution to perform an RT-PCR reaction. Upon completion of the reaction, the reaction solution was subjected to agarose gel electrophoresis to determine the mRNA expression amounts of keratinocyte differentiation markers KRT1, KRT10, Loricrin, and Involucrin.

Molecule	mRNA and protein expression amounts of matrix metalloproteinases MMP2 and MMP9 [1]	mRNA and protein expression amounts of KRT1, KRT10, Loricrin, and Involucrin [2]	mRNA expression amounts of HaCaT differentiation markers KRT1, KRT10, Loricrin, and Involucrin (HaCaT keratinocytes)
B1	significantly increased		
B2		significantly increased	significantly increased
